Laboratory results: the supplement of paper PMC10567573

B1: RAD51 (parent)
chain: RFLRMLLRLADEFGVAVVITNQVV

Variants of: B1
Assay: protein stability index of a GFP-peptide fusion (GPS, HEK-293T) (PSI 1-6); higher = more stable
Conditions: c terminus: a fixed tail appended
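Further: lentivirally expressed fusions sorted by FACS into six bins by GFP to DsRed ratio, PSI derived from sequencing read proportions per bin multiplied by bin number.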

Compared with RFLRMLLRLADEFGVAVHITNQVV [V18H], RFLRMLLRLADEFGVAVEITNQVV [V18E] is lower in protein stability index: 3.04 for the first, 2.44 for the second.

Going from RFLRMLLRLADEFGVAVWITNQVV [V18W] to RFLRMLLRLADEFGVAVPITNQVV [V18P], the protein stability index falls from 2.75 to 2.32.

Going from RFLRMLLRLADEFGVAVAITNQVV [V18A] to RFLRMLLRLADEFGVAVIITNQVV [V18I], the protein stability index falls from 3.03 to 1.87.

First: RFLRMLLRLADEFGVAVTITNQVV [V18T]
Second: RFLRMLLRLADEFGVAVMITNQVV [V18M]
The protein stability index of the first is lower: 3.38 for the first, 3.82 for the second.

Compared with RFLRMLLRLADEFGVAVLITNQVV [V18L], RFLRMLLRLADEFGVAVFITNQVV [V18F] is lower in protein stability index: 2.62 for the first, 1.24 for the second.

First: RFLRMLLRLADEFGVAVNITNQVV [V18N]
Second: RFLRMLLRLADEFGVAVCITNQVV [V18C]
The protein stability index of the first is higher: 3.8 for the first, 2.1 for the second.

First: RFLRMLLRLADEFGVAVRITNQVV [V18R]
Second: RFLRMLLRLADEFGVAVDITNQVV [V18D]
The protein stability index of the first is higher: 2.94 for the first, 2.79 for the second.

Compared with RFLRMLLRLADEFGVAVQITNQVV [V18Q], RFLRMLLRLADEFGVAVSITNQVV [V18S] is higher in protein stability index: 2.87 for the first, 3.17 for the second.

Going from RFLRMLLRLADEFGVAVKITNQVV [V18K] to RFLRMLLRLADEFGVAVGITNQVV [V18G], the protein stability index falls from 3.09 to 2.45.

First: RFLRMLLRLADEFGVAVVITNQHV [V23H]
Second: RFLRMLLRLADEFGVAVVITNQIV [V23I]
The protein stability index of the first is lower: 2.07 for the first, 3.7 for the second.

First: RFLRMLLRLADEFGVAVVITNQMV [V23M]
Second: RFLRMLLRLADEFGVAVVITNQWV [V23W]
The protein stability index of the first is higher: 2.37 for the first, 1.98 for the second.

Compared with RFLRMLLRLADEFGVAVVITNQCV [V23C], RFLRMLLRLADEFGVAVVITNQNV [V23N] is lower in protein stability index: 2.69 for the first, 1.9 for the second.

Compared with RFLRMLLRLADEFGVAVVITNQPV [V23P], RFLRMLLRLADEFGVAVVITNQEV [V23E] is lower in protein stability index: 2.23 for the first, 1.9 for the second.

Compared with RFLRMLLRLADEFGVAVVITNQDV [V23D], RFLRMLLRLADEFGVAVVITNQAV [V23A] is higher in protein stability index: 2.64 for the first, 2.66 for the second.

First: RFLRMLLRLADEFGVAVVITNQYV [V23Y]
Second: RFLRMLLRLADEFGVAVVITNQFV [V23F]
The protein stability index of the first is lower: 1.5 for the first, 3.02 for the second.

Compared with RFLRMLLRLADEFGVAVVITNQTV [V23T], RFLRMLLRLADEFGVAVVITNQQV [V23Q] is higher in protein stability index: 1.51 for the first, 1.98 for the second.

Going from RFLRMLLRLADEFGVAVVITNQRV [V23R] to RFLRMLLRLADEFGVAVVITNQLV [V23L], the protein stability index rises from 1.09 to 2.38.

First: RFLRMLLRLADEFGVAVVITNQSV [V23S]
Second: RFLRMLLRLADEFGVAVVITNQKV [V23K]
The protein stability index of the first is lower: 2.56 for the first, 2.73 for the second.

Going from RFLRMLLRLADEFGVAPVITNQVV [V17P] to RFLRMLLRLADEFGVAGVITNQVV [V17G], the protein stability index rises from 1.86 to 3.41.

First: RFLRMLLRLADEFGVACVITNQVV [V17C]
Second: RFLRMLLRLADEFGVAFVITNQVV [V17F]
The protein stability index of the first is lower: 1.06 for the first, 2.19 for the second.

Going from RFLRMLLRLADEFGVASVITNQVV [V17S] to RFLRMLLRLADEFGVADVITNQVV [V17D], the protein stability index rises from 1.36 to 2.06.

Going from RFLRMLLRLADEFGVAIVITNQVV [V17I] to RFLRMLLRLADEFGVARVITNQVV [V17R], the protein stability index falls from 3.4 to 1.52.

First: RFLRMLLRLADEFGVAQVITNQVV [V17Q]
Second: RFLRMLLRLADEFGVAEVITNQVV [V17E]
The protein stability index of the first is lower: 1.25 for the first, 2.58 for the second.

Going from RFLRMLLRLADEFGVAMVITNQVV [V17M] to RFLRMLLRLADEFGVATVITNQVV [V17T], the protein stability index falls from 2.49 to 2.11.

Compared with RFLRMLLRLADEFGVANVITNQVV [V17N], RFLRMLLRLADEFGVALVITNQVV [V17L] is higher in protein stability index: 2.35 for the first, 2.96 for the second.

Going from RFLRMLLRLADEFGVAWVITNQVV [V17W] to RFLRMLLRLADEFGVAKVITNQVV [V17K], the protein stability index rises from 2.41 to 2.65.

Compared with RFLRMLLRLADEFGVAAVITNQVV [V17A], RFLRMLLRLADEFGVAYVITNQVV [V17Y] is higher in protein stability index: 1.67 for the first, 2.83 for the second.

Going from RFLRMLLRLADEFGVAHVITNQVV [V17H] to RFLRMLLRLADEFGVAVVHTNQVV [I19H], the protein stability index falls from 2.9 to 1.25.

First: RFLRMLLRLADEFGVAVVPTNQVV [I19P]
Second: RFLRMLLRLADEFGVAVVWTNQVV [I19W]
The protein stability index of the first is lower: 1.47 for the first, 1.96 for the second.

Compared with RFLRMLLRLADEFGVAVVGTNQVV [I19G], RFLRMLLRLADEFGVAVVRTNQVV [I19R] is higher in protein stability index: 1.58 for the first, 3 for the second.

Compared with RFLRMLLRLADEFGVAVVDTNQVV [I19D], RFLRMLLRLADEFGVAVVCTNQVV [I19C] is lower in protein stability index: 2.76 for the first, 2 for the second.

Compared with RFLRMLLRLADEFGVAVVKTNQVV [I19K], RFLRMLLRLADEFGVAVVQTNQVV [I19Q] is lower in protein stability index: 2.52 for the first, 1.37 for the second.

Going from RFLRMLLRLADEFGVAVVLTNQVV [I19L] to RFLRMLLRLADEFGVAVVVTNQVV [I19V], the protein stability index rises from 1.45 to 1.63.

Going from RFLRMLLRLADEFGVAVVNTNQVV [I19N] to RFLRMLLRLADEFGVAVVATNQVV [I19A], the protein stability index rises from 2.67 to 3.02.

Compared with RFLRMLLRLADEFGVAVVYTNQVV [I19Y], RFLRMLLRLADEFGVAVVFTNQVV [I19F] is lower in protein stability index: 2.79 for the first, 2.18 for the second.

First: RFLRMLLRLADEFGVAVVSTNQVV [I19S]
Second: RFLRMLLRLADEFGVAVVTTNQVV [I19T]
The protein stability index of the first is lower: 1.95 for the first, 2.84 for the second.

Compared with RFLRMLLRLADEFGVAVVIYNQVV [T20Y], RFLRMLLRLADEFGVAVVIMNQVV [T20M] is lower in protein stability index: 1.97 for the first, 1.44 for the second.

Compared with RFLRMLLRLADEFGVAVVIFNQVV [T20F], RFLRMLLRLADEFGVAVVIANQVV [T20A] is higher in protein stability index: 1.3 for the first, 2.68 for the second.

First: RFLRMLLRLADEFGVAVVIDNQVV [T20D]
Second: RFLRMLLRLADEFGVAVVIWNQVV [T20W]
The protein stability index of the first is lower: 2.52 for the first, 3.05 for the second.

Compared with RFLRMLLRLADEFGVAVVIPNQVV [T20P], RFLRMLLRLADEFGVAVVIKNQVV [T20K] is higher in protein stability index: 2.72 for the first, 3.31 for the second.

First: RFLRMLLRLADEFGVAVVILNQVV [T20L]
Second: RFLRMLLRLADEFGVAVVISNQVV [T20S]
The protein stability index of the first is lower: 2.3 for the first, 3.06 for the second.

Compared with RFLRMLLRLADEFGVAVVIQNQVV [T20Q], RFLRMLLRLADEFGVAVVIVNQVV [T20V] is higher in protein stability index: 2.26 for the first, 2.82 for the second.

First: RFLRMLLRLADEFGVAVVIINQVV [T20I]
Second: RFLRMLLRLADEFGVAVVICNQVV [T20C]
The protein stability index of the first is higher: 2.75 for the first, 1.8 for the second.

First: RFLRMLLRLADEFGVAVVIRNQVV [T20R]
Second: RFLRMLLRLADEFGVAVVIENQVV [T20E]
The protein stability index of the first is higher: 2.34 for the first, 1.53 for the second.

Compared with RFLRMLLRLADEFGVAVVINNQVV [T20N], RFLRMLLRLADEFGVAVVIGNQVV [T20G] is higher in protein stability index: 1.21 for the first, 1.98 for the second.

Compared with RFLRMLLRLADEFGVTVVITNQVV [A16T], RFLRMLLRLADEFGVYVVITNQVV [A16Y] is higher in protein stability index: 1.79 for the first, 1.93 for the second.

Compared with RFLRMLLRLADEFGVVVVITNQVV [A16V], RFLRMLLRLADEFGVWVVITNQVV [A16W] is higher in protein stability index: 1.34 for the first, 2.44 for the second.
